The results in this text go back to patent US6967100B2, “Pancreatic islet cell growth factors” (The Walter and Eliza Hall Institute of Medical Research, priority 2000, dated 2005).

Holding throughout (type): cell-based
The subject of experiment [1] is E15.5 CBA mouse fetal pancreas cells. As to the kind of experiment: Cystic colony formation of E15.5 fetal mouse pancreas cells in laminin-1 overlay culture. The conditions noted are these: BMP alone.
The next experiment relates to C2C12 myoblasts. Put plainly: C2C12 cell BMP bioassay (transformation of myoblasts into alkaline phosphatase-containing osteoblasts). Conditions: conditioned medium of stably transfected CHO cells, compared to medium of untransfected CHO cells. On the procedure:
BMP activity was measured in the C2C12 cell bioassay, in which BMPs transform C2C12 myoblasts into alkaline phosphatase-containing osteoblasts (Katagiri et al., 1994). Briefly, CHO cells were plated at a density of around 5×10^6 per 75 cm^2 flask in serum-free HYBRIDOMA medium (Gibco BRL Life Technology) (SFHM) containing 10% v/v FCS. Once the cells had reached confluency, the medium was removed, the cells washed twice with SFHM and 10 ml of SFHM then added to each flask. The cells were cultured for four days and the conditioned medium collected, filtered through a 2 micron filter and stored at 4° C.
2×10^3 C2C12 cells were plated into each well of a 96-well tissue culture plate in DME/10% v/v FCS. Twenty-four hours later, the medium was removed and replaced with 100 μl SFHM/1% v/v FCS. 50 μl of each conditioned medium was added in duplicate to the top row of the 96-well plate and the volume of these wells then made up to 200 μl. Using a multi-channel pipette, 100 μl from each well was then serially transferred to subsequent rows thus diluting the conditioned medium 2-fold with each transfer. After incubation for five days, the media were discarded and the cells washed with normal saline. Cells were lysed for 10 mins at room temperature (RT) in 100 μl 0.5% v/v TritonX-100 and 100 mM diethanolamine (pH 9.5) in normal saline. To each well was then added an aqueous solution containing 10 mM diethanolamine, 1 mg/ml p-nitrophenyl phosphate (PNPP) and 0.5 mM MgCl2. The yellow reaction product catalyzed by alkaline phosphatase was allowed to develop for 10-60 mins before reading absorption at 415 nm.

For experiment [2], the system named is E15.5 CBA mouse fetal pancreas cells. Put plainly: Cystic colony formation of E15.5 fetal mouse pancreas cells in laminin-1 overlay culture. The conditions noted are these: laminin-1 160 μg/ml. On the procedure:
Pancreata were dissected from embryonic day (E)15.5 CBA mouse fetuses and dissociated into single cells as described (Jiang et al., 1999). Briefly, dissected pancreas was digested with trypsin/EDTA for 15 minutes at 37° C. in a shaking water bath. Cells were counted in a haemocytometer and viability determined by trypan blue dye exclusion. Each fetal pancreas yielded 50,000 viable cells (48,509±11,299, n=14). Dissociated cells were plated in 8 well chamber slides (Nunc, Naperville, USA) at 7.5×10^4 cells/well in 0.3 ml AIM V medium supplemented with N-2 (1:100, Gibco BRL Life Technologies, Gaithersburg, USA), 500 UI/ml penicillin and 500 μg/ml streptomycin. Laminin-1 (160 μg/ml), purified from murine Engelbreth-Holm-Swarm tumor basement membrane (Becton Dickinson Labware, Bedford, USA), was overlayed on cells in the presence of various growth factors. Cultures were incubated in 10% CO2 90% air at 37° C., for up to 6 days. Recombinant human BMP 6 and BMP 5, recombinant human TGF-β1 and recombinant activin A were purchased from R&D Systems (Minneapolis, USA). These factors, dissolved at a concentration of 10 ng/μl in mouse tonicity phosphate buffered saline (PBS) containing 0.1% w/v bovine serum albumin (BSA), were added at the start of culture. Phase contrast images of colonies were photographed with Olympus IX70 digitized camera.
Colony formation was assessed at day 6 of culture. A colony was defined as a cellular sphere ≧30 μm in diameter, which contained more than 20 cells. The number of colonies per well was counted directly under a inverted microscope at ×10. Colony counts were performed using a blind design.

B1: BMP 6: recombinant human BMP 6 purchased from R&D Systems (protein, UniProt P22004 375-513, looked up)
Bone morphogenetic protein 6: SASSRRRQQSRNRSTQSQDVARVSSASDYNSSELKTACRKHELYVSFQDLGWQDWIIAPKGYAANYCDGECSFPLNAHMNATNHAIVQTLVHLMNPEYVPKPCCAPTKLNAISVLYFDDNSNVILKKYRNMVVRACGCH
As to B1, the “colony formation in the absence of laminin-1” value in experiment [1] was “no effect”. Further, the “BMP activity of conditioned medium (alkaline phosphatase activity of C2C12 cells)” value in the experiment on C2C12 myoblasts is “significant BMP activity was never detected”. In experiment [2] (day 6, fewer colonies at higher concentrations), the “concentration of maximal stimulation of colony formation” value came out at 10 ng/mL. The “formation of cystic colonies in the presence of laminin-1” value in experiment [2] (up to 6 days) is “synergized with laminin-1 to promote formation of cystic colonies”.
